Laboratory results reported in the supplement of paper PMC9732359.
± gives the uncertainty stated by the source.

Test: protein stability index of a GFP-peptide fusion (yeast GPS) (PSI 1-4); higher = more stable; sorted into four equal gates, so the index is relative within each strain
Conditions: san1∆
Summary of the method: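 Sequencing reads from sorted gates were used to score each peptide. The library consisted of tiled 17-residue yeast protein peptides fused downstream of GFP on a Cherry-expressing plasmid, pooled and carried in yeast. Mid-log cultures in leucine-free medium were split into four equal gates by GFP/Cherry ratio, and each gate's plasmids were PCR-amplified and Illumina-sequenced. The protein stability index adds up, over all gates, the read frequency multiplied by the gate number.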

| Sequence | protein stability index |
| --- | --- |
| SHPEKRMIPPRMVRSIM [SSN3] | 2.33 ± 0.065 |
| SIDSTSRIELELKNIGL [ECM29] | 2.74 ± 0.042 |
| SIESKLEEHKNHLDELQ [SMC1] | 2.92 ± 0.069 |
| SIEVQSLPEFFTNRIPS [SWI3] | 2.51 ± 0.064 |
| SIGEPGTQMTLKTFHFA [RPO31] | 2.56 ± 0.096 |
| SIGSIYQWNLDGLQQLD [RPN1] | 1.93 ± 0.1 |
| SIHVNRVERSSRSTDNF [RRI1] | 3.03 ± 0.058 |
| SILPTRDDLFVRNLQGI [NUT1] | 2.05 ± 0.15 |
| SINISCVQLIKCLVEKS [SWI1] | 2.27 ± 0.1 |
| SIRLKVPPTIAQFQYTL [RPL8A] | 1.93 ± 0.064 |
| SIRRQDYINELSNSNRF [REC8] | 3.4 ± 0.092 |
| SIYKYIHLNELLTNDES [SNF12] | 2.19 ± 0.071 |
| SKDELREKLAEVYKAEK [RPS24A] | 3.59 ± 0.08 |
| SKEDTLRLCLDIVPYFL [RPN1] | 1.58 ± 0.081 |
| SKEGQYKAKIKELENNL [YIL149C/MLP2] | 2.18 ± 0.13 |
| SKFNNADDVFTGTGLQD [RPC31] | 3.12 ± 0.056 |
| SKGYVKTQFSWQYYYYT [RPS10A] | 2.76 ± 0.05 |
| SKIFRFQNSKSASLFKQ [RPL24A] | 2.54 ± 0.096 |
| SKIIVFPRDGKAPEAEQ [RPL13B] | 3.18 ± 0.058 |
| SKKDPRILKNVSPNDNN [YMR153W/NUP53] | 2.42 ± 0.054 |
| SKLDYIFKDKEKLVSDL [SMC1] | 3.27 ± 0.2 |
| SKLKEEEAALLIKERQE [ESC2] | 2.83 ± 0.043 |
| SKLKLKNLLRKNLSIDE [ECM29] | 1.46 ± 0.098 |
| SKLMPVLKSSVYEYVIA [RPC82] | 1.25 ± 0.1 |
| SKLRNNIRSQLLSENRS [SRP54] | 2.67 ± 0.06 |

| Sequence | protein stability index |
| --- | --- |
| SKNELKKAFTSYDRTLL [RPS16A] | 3.12 ± 0.07 |
| SKNMSKSPSLTAQKYPI [YMR153W/NUP53] | 2.48 ± 0.055 |
| SKQNGSKFHFSWNESED [PRP28] | 2.72 ± 0.072 |
| SKQTPQPKAPRAPKVIH [ISW2] | 2.93 ± 0.041 |
| SKRRITEELSITGEKLD [SMC1] | 2.18 ± 0.1 |
| SKSKQSFTQGELNDLKW [YMR129W/POM152] | 3.08 ± 0.11 |
| SKSLQESGDTQEEDEEE [RPC82] | 3.29 ± 0.08 |
| SKTSENKVSNTVSPTQD [SIR2] | 2.83 ± 0.093 |
| SKVGSADTGRDDTKETV [RPN11] | 3.59 ± 0.068 |
| SKVVIDSIIDNIVKLCF [IRR1] | 2.2 ± 0.089 |
| SLEDKILRMGAFRTIES [RRI1] | 1.83 ± 0.18 |
| SLFHIVVDTEETATLIM [SMC3] | 1.68 ± 0.17 |
| SLFSHRKHTRGDVSSGL [BRN1] | 3.28 ± 0.16 |
| SLGFNEVFSRPEWMILT [RPO21] | 1.62 ± 0.12 |
| SLHILMIFWNDICQIDT [SRB8] | 1.52 ± 0.053 |
| SLHRQQQQQQQQVPPLP [DLS1] | 2.63 ± 0.046 |
| SLIIDQQENSKSGKRKP [RPC31] | 2.69 ± 0.086 |
| SLIKETNQLVLLQKMLN [YML103C/NUP188] | 1.06 ± 0.096 |
| SLKGLQSKLKDVVEYLD [RPN8] | 2.71 ± 0.069 |
| SLNEKNALHTERLHELK [SMC1] | 2.89 ± 0.067 |
| SLNTKKNEKLILEESLN [SMC3] | 2.59 ± 0.15 |
| SLPRFSKPVLIVGQKNL [DIS3] | 1.77 ± 0.082 |
| SLQQMQHLQQLKMQQQQ [GAL11] | 2.36 ± 0.099 |
| SLQYIERQQDELENFLD [YJL041W/NSP1] | 3.43 ± 0.096 |
| SLRRQVKKLEIQQHARY [RPL43A] | 2.96 ± 0.077 |

| Sequence | protein stability index |
| --- | --- |
| SLTEKFSQTVADNNDLQ [ECM29] | 2.64 ± 0.068 |
| SLYIFFTTLLESKQDGL [YML103C/NUP188] | 1.25 ± 0.1 |
| SMFLRIDYSNSQIRLYA [RGR1] | 2.4 ± 0.068 |
| SMLFKTSQKMTSTVNRL [MCD1] | 2.33 ± 0.14 |
| SMNATMRNFSKQNQDSK [YDL088C/ASM4] | 1.94 ± 0.27 |
| SMVYSNVGELIEKNVME [RRP4] | 2.55 ± 0.056 |
| SNDERIVKRLYEYGAVS [BRR2] | 3.14 ± 0.056 |
| SNDPDVNNTRRRVYNRV [BRN1] | 3 ± 0.14 |
| SNDRVNPLIELTPIQKK [ITC1] | 2.15 ± 0.27 |
| SNDVLKPETPKGPIIIS [SIR2] | 2.78 ± 0.071 |
| SNETIGEIQLLFQRQKL [IRR1] | 3.14 ± 0.14 |
| SNGEFIPHIFYSLHQIR [CSE2] | 2.12 ± 0.072 |
| SNILLNSLTKYPDLKAF [MED1] | 2.24 ± 0.2 |
| SNININVNNNNIGQQQV [SWI1] | 3.07 ± 0.074 |
| SNKILVYESEMEQCKQR [YIL149C/MLP2] | 2.18 ± 0.28 |
| SNKPCMGIVQDTLCGIR [RPO21] | 2.15 ± 0.073 |
| SNLKISLVKYPELLDSL [SWI1] | 2.71 ± 0.074 |
| SNNTAATADTTHLHEAL [NUT1] | 3.15 ± 0.11 |
| SNSSSSPPIIDLFSNNN [MED1] | 2.83 ± 0.042 |
| SNTIDELSTDIILKTRQ [SRB7] | 3.18 ± 0.089 |
| SNTSTSKMLDAASSQVS [SNF12] | 2.5 ± 0.12 |
| SNVLDGNKNQFEPSISR [LRP1] | 3.12 ± 0.046 |
| SPEESKARSPGIAKPNA [SIR4] | 3.09 ± 0.091 |
| SPLNTTTKILGDKILGN [YML103C/NUP188] | 2.45 ± 0.059 |
| SPPIIDLFSNNNYNSRI [MED1] | 2.86 ± 0.062 |

Same assay, conditions: ubr1∆

| Sequence | protein stability index |
| --- | --- |
| SHPEKRMIPPRMVRSIM [SSN3] | 3.19 ± 0.066 |
